Experimental data taken from article PMC13168374, “Reversible DNA condensation drives natural transformation”.
Positions count from the first letter of the chain named. Each block holds one molecule with its values, some of them ahead of it.

What was measured:
[1] = target: ComEA from Geobacillus stearothermophilus, soluble truncation lacking the N-terminal sequence (amino acids 60-207) (Geobacillus stearothermophilus)
[2] = target: ComEA from Geobacillus stearothermophilus, soluble truncation lacking the N-terminal sequence (amino acids 60-207) (Geobacillus stearothermophilus); remark: listed apart in the source
[3] = target: ComEA from Geobacillus stearothermophilus, soluble truncation lacking the N-terminal sequence (amino acids 60-207) (Geobacillus stearothermophilus); remark: listed apart in the source
[4] = target: T1, ComEA A108Y A108Y (Geobacillus stearothermophilus) (UniProt A0A0K9HI54); assay: optical tweezers overstretching; conditions: EC50 of overstretch force increase; Ymax 12.7 pN; 23 C; FP: 20 mM Tris-HCl pH 7.5, 200 mM KCl, 80 nM DNA, ~20 C (spin at 20 C; read temperature not stated); optical tweezers 23 +/- 1 C, buffer not given in material
T1 sequence: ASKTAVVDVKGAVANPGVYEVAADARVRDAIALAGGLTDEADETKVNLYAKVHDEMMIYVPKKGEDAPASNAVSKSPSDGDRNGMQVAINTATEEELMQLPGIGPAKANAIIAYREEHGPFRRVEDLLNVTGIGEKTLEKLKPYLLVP

[5] = target: ComEA LL ins19aa;after;143 (Geobacillus stearothermophilus) (UniProt A0A0K9HI54); assay: optical tweezers overstretching; conditions: FP: 20 mM Tris-HCl pH 7.5, 200 mM KCl, 80 nM DNA, ~20 C (spin at 20 C; read temperature not stated); optical tweezers 23 +/- 1 C, buffer not given in material
[6] = target: T2, ComEA deltaL internal_change (Geobacillus stearothermophilus) (UniProt A0A0K9HI54); assay: optical tweezers overstretching; conditions: FP: 20 mM Tris-HCl pH 7.5, 200 mM KCl, 80 nM DNA, ~20 C (spin at 20 C; read temperature not stated); optical tweezers 23 +/- 1 C, buffer not given in material
T2 sequence: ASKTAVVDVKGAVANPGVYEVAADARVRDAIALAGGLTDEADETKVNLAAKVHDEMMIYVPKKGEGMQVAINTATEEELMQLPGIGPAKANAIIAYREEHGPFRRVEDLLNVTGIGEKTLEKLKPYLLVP

[7] = target: T3, ComEA (soluble truncation) (Geobacillus stearothermophilus, UniProt A0A0K9HI54 60-207); assay: optical tweezers overstretching; conditions: EC50 of overstretch force increase; Ymax 28.6 pN; 23 C; FP: 20 mM Tris-HCl pH 7.5, 200 mM KCl, 80 nM DNA, ~20 C (spin at 20 C; read temperature not stated); optical tweezers 23 +/- 1 C, buffer not given in material
T3 sequence: T1 sequence with Y49A

[8] = target: T4, ComEA A108Y (Geobacillus stearothermophilus, UniProt A0A0K9HI54 60-207, A108Y); assay: fluorescence polarization; Hill coefficient 0.96 +/- 0.16; FP: 20 mM Tris-HCl pH 7.5, 200 mM KCl, 80 nM DNA, ~20 C (spin at 20 C; read temperature not stated); optical tweezers 23 +/- 1 C, buffer not given in material; conditions: protein: recombinant; label: 3'-fluorescein (36-FAM) on strand 1; blunt
T4 sequence: T1 sequence

[9] = target: T3, ComEA (soluble truncation); assay: fluorescence polarization; Hill coefficient 1.56 +/- 0.28; FP: 20 mM Tris-HCl pH 7.5, 200 mM KCl, 80 nM DNA, ~20 C (spin at 20 C; read temperature not stated); optical tweezers 23 +/- 1 C, buffer not given in material; conditions: protein: recombinant; label: 3'-fluorescein (36-FAM) on strand 1; blunt
[10] = target: T5, ComEA deltaL (Geobacillus stearothermophilus, UniProt A0A0K9HI54 60-124+143-207, internal_change); assay: fluorescence polarization; Kd within error of ComEA; Hill >1; value in Fig. 5c only; FP: 20 mM Tris-HCl pH 7.5, 200 mM KCl, 80 nM DNA, ~20 C (spin at 20 C; read temperature not stated); optical tweezers 23 +/- 1 C, buffer not given in material; conditions: protein: recombinant; label: 3'-fluorescein (36-FAM) on strand 1; blunt
T5 sequence: T2 sequence

condensation force produced and held for at least 1 s during the 10 s rest phase, optical tweezers, 20 nM-4 µM ComEA (value at 200 nM; buffer alone 0.03 pN) [1]: 0.11 pN
condensation force from an eWLC fit of the DNA released per cycle against the extension held in the rest phase, optical tweezers [2]: 0.07 pN
fold condensation of 5.495 kbp dsDNA (bounding circle radius, negative stain electron microscopy), 200 nM-4 µM ComEA, peak value [3]: 3.5 fold
Molecule: ComEA from Geobacillus stearothermophilus, soluble truncation lacking the N-terminal sequence (amino acids 60-207) (domain or fragment)

Molecule: 6 kbp dsDNA (optical tweezers)
K half [4]: 210 nM
K half [5]: 330 nM
K half [6]: 380 nM
K half [7]: 290 nM

B1: 30 bp DNA duplex (dsDNA)
DNA 1: GCACTGTGAATATCACTACAGCAACCTTGA
DNA 2: TCAAGGTTGCTGTAGTGATATTCACAGTGC
Kd [8]: 1910 ± 520 nM
Kd [9]: 660 ± 80 nM
binding result [10]: binds
